Test results as given in PMC9563714.

Target: T1, Vfr (Pseudomonas aeruginosa UCBPP-PA14) (UniProt P55222)
T1 sequence: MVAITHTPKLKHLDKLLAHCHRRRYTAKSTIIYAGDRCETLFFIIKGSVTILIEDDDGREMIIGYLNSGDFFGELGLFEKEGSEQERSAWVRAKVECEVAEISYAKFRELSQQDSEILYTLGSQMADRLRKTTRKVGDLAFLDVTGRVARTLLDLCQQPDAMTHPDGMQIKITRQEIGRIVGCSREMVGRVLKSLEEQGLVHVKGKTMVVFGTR
Assay: EMSA

TCTGACCCATCCGCGCGACTGGCCCCCGGGCCGGTCGCTCCCCCGGGACGACCGTCGGTCCCGGATCGGCGCGCTTTCCTGAACTATCGATCAGCTGTCACTGGCCGCCGCGCAAACGCTTGGTTAAGATTCCGCCAGCAACCTGGCCACCCGCCATTCCCCAGGCGGAAAGCTCACGAGGCCGAGCCGGGACGAAAATACACAGGGATCCTCTCCAGCGCATG (double strand) [PcyaB]
binding: no binding
